{
  "source": "paper PMC10917881",
  "about": "“Biochemical characterization of L-asparaginase isoforms from Rhizobium etli—the boosting effect of zinc” (Frontiers in Chemistry, 2024)",
  "key": {"[1]": {"molecular_target": "Rhizobium etli L-asparaginase ReAV (inducible, thermolabile), wild type (Rhizobium etli)", "assay": "mass photometry; Refeyn One mass photometer; protein diluted to 20-50 nM; buffers 50 mM Tris-HCl pH 8.0 or 30 mM carbonate pH 9.0; absence or presence of Zn2+ and/or Mg2+; dimer to monomers"}, "[2]": {"molecular_target": "Rhizobium etli L-asparaginase ReAIV (constitutive, thermostable), wild type (Rhizobium etli)", "assay": "mass photometry; Refeyn One mass photometer; protein diluted to 20-50 nM; buffers 50 mM Tris-HCl pH 8.0 or 30 mM carbonate pH 9.0; absence or presence of Zn2+ and/or Mg2+; dimer to monomers"}},
  "data": [
    {"substance": "Rhizobium etli L-asparaginase ReAV (inducible, thermolabile), wild type (enzyme)", "values": [
      {"measurement": "stoichiometry N", "setting": "[1]", "result": 2}
    ]},
    {"substance": "Rhizobium etli L-asparaginase ReAIV (constitutive, thermostable), wild type (enzyme)", "values": [
      {"measurement": "stoichiometry N", "setting": "[2]", "result": 2}
    ]}
  ]
}
